Reference: publication PMC9917220

Assays:
[1] = target: T1, human thrombin (Homo sapiens, UniProt P00734;P00734 328-363;364-622); experiment: CD; 0.5 uM thrombin, 5 uM DNA; no significant spectral change; Binding Buffer: 50 mM Tris-HCl, 100 mM NaCl, 1 mM MgCl2, 1 M DTT (so in the source), pH not stated; ITC and CD at 25 C
[2] = target: T1, human thrombin; experiment: ITC; 25 C, binding buffer, 1 mM Mg2+; Binding Buffer: 50 mM Tris-HCl, 100 mM NaCl, 1 mM MgCl2, 1 M DTT (so in the source), pH not stated; ITC and CD at 25 C

B1: 40mer AS2-3 (structured_DNA)
DNA: TACAGGCAGTAAGGCCGTGTCATCAGGATGGGCACTTTCC
binding result [1]: no binding

B2: AS2-3 (61mer; identical to AS7-36 and AS7-83) (structured_DNA)
DNA: TACAGGCAGTAAGGCCGTGTCATCAGGATGGGCACTTTCCTAGGGCAGGTTAGCAACAGGA
Kd [2]: 3.36 µM
